The results in this text go back to the Immune Epitope Database (IEDB).

One assay concerns the target HLA-A*31:01. The assay is described as follows: IEDB peptide-MHC binding, purified MHC/competitive/radioactivity; filed as Kd, often an IC50 or EC50 that approximates it; ≥ and ≤ were set here for values at or beyond the usual limits of such assays.
Another assay addresses HLA-A*03:01. Described as above.
A further assay has as its target HLA-A*33:01. Described as above.
A further assay addresses HLA-A*30:01. The assay is described as above.
Another assay concerns the target HLA-A*68:01. The description is as above.
The next assay addresses HLA-A*24:02. The assay is described as follows: IEDB peptide-MHC binding, purified MHC/competitive/fluorescence; ≥ and ≤ were set here for values at or beyond the usual limits of such assays.
For the next assay, the target named is HLA-B*44:02. The assay is described as follows: IEDB peptide-MHC binding, purified MHC/competitive/radioactivity; filed as Kd, often an IC50 or EC50 that approximates it; ≥ and ≤ were set here for values at or beyond the usual limits of such assays.
Assay [1] addresses HLA-A*02:01. Briefly: IEDB peptide-MHC binding, purified MHC/competitive/fluorescence; ≥ and ≤ were set here for values at or beyond the usual limits of such assays.
Another assay addresses HLA-A*32:01. The assay is described as follows: IEDB peptide-MHC binding, purified MHC/competitive/radioactivity; filed as Kd, often an IC50 or EC50 that approximates it; ≥ and ≤ were set here for values at or beyond the usual limits of such assays.
The next assay addresses HLA-A*02:06. The assay is described as above. The following applies: source organism: Dengue virus 1 Brazil/97-11/1997.
In the next assay the target is HLA-B*53:01. The assay is described as above.
The next assay concerns the target HLA-B*44:03. The assay is described as above.
In the next assay the target is HLA-A*26:01. The description is as above. To be noted: source organism: Dengue virus 4 Philippines/H241/1956.
Assay [2] has as its target HLA-A*02:01. The assay is described as follows: IEDB peptide-MHC binding, purified MHC/competitive/fluorescence; filed as Kd, often an IC50 or EC50 that approximates it; ≥ and ≤ were set here for values at or beyond the usual limits of such assays. To be noted: source organism: Vaccinia virus WR 65-16.
The next assay has as its target HLA-A*01:01. Briefly: IEDB peptide-MHC binding, purified MHC/competitive/radioactivity; filed as Kd, often an IC50 or EC50 that approximates it; ≥ and ≤ were set here for values at or beyond the usual limits of such assays. To be noted: source organism: Dengue virus 1 Singapore/S275/1990.
The target of the next assay is HLA-B*40:01. The assay is described as above. The following applies: source organism: Dengue virus 2 Jamaica/1409/1983.
The mark [3] stands for this setting: source organism: Mammarenavirus machupoense.
Setting [4] is: source organism: Zaire ebolavirus.
Where [5] appears, read: source organism: Dengue virus 1 Singapore/S275/1990.
[6] abbreviates: source organism: Sudan ebolavirus.
The mark [7] stands for this setting: source organism: Vaccinia virus WR.
The mark [8] stands for this setting: source organism: Dengue virus 1 Brazil/97-11/1997.
The mark [9] stands for this setting: source organism: Dengue virus 4 Philippines/H241/1956.
Where [10] appears, read: source organism: Dengue virus 2 Jamaica/1409/1983.
[11] abbreviates: source organism: Dengue virus 3 Martinique/1243/1999.
The mark [12] stands for this setting: source organism: Lymphocytic choriomeningitis virus (strain Armstrong).
Where [13] appears, read: source organism: Vaccinia virus.

What is called Kd is the concentration at which binding is half-saturated. For the sequence SIQKNTIFK, the Kd with HLA-A*31:01 (setting [3]) was 1890 nM; with HLA-A*03:01 (setting [3]), 10.4 nM; with HLA-A*33:01 (setting [3]), at least 22900 nM; with HLA-A*30:01 (setting [3]), 62.6 nM; with HLA-A*68:01 (setting [3]) it was 162 nM.

Usually IC50 stands for the concentration that gives 50% inhibition. The low end stands for greater potency, the high end for weaker potency. VDNLTYVQL came in with an IC50 with HLA-A*24:02 (setting [4]) of at least 117000 nM.

TDFQSHQLW: the Kd with HLA-B*44:02 (setting [5]) amounted to 37 nM.

Take MEGLSLLQL: the IC50 with HLA-A*02:01 [1] (setting [6]) was at least 88900 nM; in the assay with HLA-A*24:02 (setting [6]), 22300 nM.

On to TVKDGRLGA, for which the Kd with HLA-A*30:01 (setting [7]) turned out to be 240 nM.

As to KQWFLDLPL, the results for the Kd with HLA-A*32:01 (setting [8]) and with HLA-A*02:06 were 13.3 nM and 7.51 nM, respectively.

Turning to SIRRNLALK, the Kd in the assay with HLA-A*30:01 (setting [7]) came to 12.4 nM.

With MSRRYSREK, in the assay with HLA-A*30:01 (setting [7]), the Kd was 1.31 nM.

As for KAKEMNALS, the Kd in the assay with HLA-A*30:01 (setting [7]) came out at 50.5 nM.

Consider EPDYEVDEDI, for which, in the assay with HLA-B*53:01 (setting [9]), the Kd worked out at 1170 nM.

Consider REEEEAGVLW, for which the Kd in the assay with HLA-B*44:02 (setting [10]) came to 51.2 nM; with HLA-B*44:03 (setting [10]) it was 36.1 nM.

In the case of FPQSNAPIQ, the Kd with HLA-B*53:01 (setting [11]) is 69.8 nM.

Take RAREQISNL: in the assay with HLA-A*30:01 (source organism: Cowpox virus), the Kd was found to be 2.73 nM.

In the assay with HLA-A*24:02 (setting [4]), DFQESADSF had an IC50 of 55000 nM.

In the case of ETRAETWMSS, the Kd with HLA-A*32:01 (setting [9]) is at least 47200 nM; with HLA-A*26:01, 504 nM.

With MFLITENKIW, the Kd with HLA-B*53:01 (source organism: Dengue virus 1 Nauru/West Pac/1974) was 8870 nM.

MTTEDMLKVW: in the assay with HLA-B*53:01 (setting [9]), the Kd was found to be 1150 nM.

RTSSDPGTN came in with an IC50 with HLA-A*24:02 (setting [4]) of at least 98100 nM.

Turning to NHALSELPET, the Kd in the assay with HLA-A*30:01 (setting [10]) was 1240 nM.

LGVIHNSTL: the IC50 worked out at 69100 nM with HLA-A*02:01 [1] (setting [4]) and 50900 nM in the assay with HLA-A*24:02 (setting [4]).

TTYLGPLSCK: the Kd with HLA-A*31:01 (setting [12]) was 540 nM; with HLA-A*03:01 (setting [12]), 4.47 nM; with HLA-A*33:01 (setting [12]), 647 nM; with HLA-A*30:01 (setting [12]) it was 432 nM; with HLA-A*68:01 (setting [12]) it was 4.63 nM.

Turning to YPKTKLTDW, in the assay with HLA-B*53:01 (setting [9]), the Kd is 1440 nM.

Regarding GILPWTKIS, the figures for the IC50 with HLA-A*02:01 [1] (setting [7]) and with HLA-A*24:02 (setting [7]) were 17200 nM and at least 133000 nM, respectively.

Regarding NIGNTKSNI, the results for the IC50 in the assay with HLA-A*02:01 [1] (setting [13]) and in the assay with HLA-A*24:02 (setting [13]) were at least 662000 nM and at least 176000 nM, respectively.

For LENIMWKQI, the results for the Kd with HLA-B*44:02 (setting [8]) and in the assay with HLA-B*44:03 (setting [8]) were 115 nM and 204 nM, respectively.

Turning to CLRRRVTRK, the Kd with HLA-A*03:01 (setting [9]) was 2.7 nM; with HLA-A*30:01 (setting [9]) it was 3140 nM.

For the sequence KVRTNAAMG, in the assay with HLA-A*30:01 (setting [11]), the Kd was determined as 11.3 nM.

Regarding AWRTATLIL, the Kd with HLA-A*30:01 (setting [11]) came out at 592 nM.

Regarding TLRAAMISL, the Kd in the assay with HLA-A*02:01 [2] amounted to 2310 nM; with HLA-A*30:01 (setting [7]), 0.714 nM.

As for LTDFQSHQLW, the values for the Kd in the assay with HLA-A*01:01 and with HLA-B*53:01 (setting [5]) were 3680 nM and 1580 nM, respectively.

Consider ASKTINALV, for which the Kd with HLA-A*30:01 (setting [7]) was 0.175 nM.

Regarding VNPEIDTTI, the values for the IC50 in the assay with HLA-A*02:01 [1] (setting [4]) and with HLA-A*24:02 (setting [4]) were at least 358000 nM and 16100 nM, respectively.

On to KSKFPRSML, for which the dissociation constant (Kd) with HLA-A*30:01 (setting [7]) was found to be 31.2 nM.

Regarding HIKNDFMIK, the Kd with HLA-A*30:01 (setting [7]) was found to be 1.6 nM.

Regarding VTEIGRVPSH, in the assay with HLA-A*30:01 (setting [11]), the Kd is at least 22900 nM.

KAMWKYPFS: the dissociation constant (Kd) with HLA-A*30:01 (setting [7]) amounted to 250 nM.

With WFNYLFGGF, the IC50 was at least 104000 nM with HLA-A*02:01 [1] (source organism: Variola virus) and 484 nM with HLA-A*24:02 (source organism: Variola virus).

In the case of RFRFRSVYG, the Kd with HLA-A*30:01 (setting [7]) is 0.357 nM.

As for AVSRGSAKLQ, the dissociation constant (Kd) in the assay with HLA-A*30:01 (setting [11]) came to 1290 nM.

Turning to MEDKTPVTTW, the values for the Kd with HLA-B*44:02 (setting [11]) and with HLA-B*44:03 (setting [11]) were 115 nM and 180 nM, respectively.

With PYFGPAAEG, the IC50 with HLA-A*24:02 (setting [4]) was 13000 nM.

Turning to VQLESRFTP, the values for the IC50 with HLA-A*02:01 [1] (setting [4]) and with HLA-A*24:02 (setting [4]) were at least 197000 nM and 59200 nM, respectively.

Consider AEPPFGDSYI, for which the results for the dissociation constant Kd in the assay with HLA-B*44:02 (setting [10]), in the assay with HLA-B*44:03 (setting [10]) and with HLA-B*40:01 were 432 nM, 79.3 nM and 1990 nM, respectively.

KAQREIFSA: the concentration for half-maximal inhibition (IC50) with HLA-A*02:01 [1] (source organism: Variola virus) worked out at 2010 nM; with HLA-A*24:02 (source organism: Variola virus), 165 nM.

With HYAYMVPGW, the IC50 with HLA-A*24:02 (source organism: West Nile virus) is 220 nM.

Consider MTLFKSILF, for which the Kd with HLA-A*32:01 (setting [7]) is 11.3 nM.

In turn, IGEWAFWEN yielded an IC50 in the assay with HLA-A*24:02 (setting [6]) of 58800 nM.

For ITTDSRCPTQ, the Kd with HLA-A*30:01 (setting [11]) was determined as 866 nM.

Consider VMEITAEWLW, for which the Kd in the assay with HLA-B*53:01 (source organism: Dengue virus 3 Singapore/8120/1995) came to 1030 nM.

For the sequence MTLGMCCII, in the assay with HLA-A*32:01 (setting [10]), the Kd worked out at 2590 nM.

For TARSNNRLA, the Kd in the assay with HLA-A*30:01 (setting [7]) turned out to be 57.6 nM.
